# Measured values: patent publication US10251952B2, “Humanized anti-tau(pS422) antibody brain shuttles and use thereof” (Hoffmann-La Roche Inc., priority 2014, dated 2019)
# Read-outs that look alike come from different tables or passages of the source. Square brackets hold non-standard residues; d marks the D form. Ends that are not written are not given here. NMeR = CN[C@@H](CCCNC(=N)N)C(=O)O; Pqa = not defined here
# T1: NPY1R (Homo sapiens, UniProt P25929)
# T1 sequence (P25929 1-384): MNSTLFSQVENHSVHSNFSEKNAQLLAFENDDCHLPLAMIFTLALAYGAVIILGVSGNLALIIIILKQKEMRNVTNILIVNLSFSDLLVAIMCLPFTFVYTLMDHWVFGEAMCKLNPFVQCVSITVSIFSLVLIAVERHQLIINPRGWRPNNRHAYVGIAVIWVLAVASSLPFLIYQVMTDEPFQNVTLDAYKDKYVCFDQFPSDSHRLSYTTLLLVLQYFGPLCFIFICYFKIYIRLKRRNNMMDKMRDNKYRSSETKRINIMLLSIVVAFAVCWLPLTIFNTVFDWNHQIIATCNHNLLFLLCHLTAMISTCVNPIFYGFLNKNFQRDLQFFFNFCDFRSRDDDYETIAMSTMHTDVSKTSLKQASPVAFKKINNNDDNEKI
# T2: NPY5R (Homo sapiens, UniProt Q15761)
# T2 sequence (Q15761 1-445): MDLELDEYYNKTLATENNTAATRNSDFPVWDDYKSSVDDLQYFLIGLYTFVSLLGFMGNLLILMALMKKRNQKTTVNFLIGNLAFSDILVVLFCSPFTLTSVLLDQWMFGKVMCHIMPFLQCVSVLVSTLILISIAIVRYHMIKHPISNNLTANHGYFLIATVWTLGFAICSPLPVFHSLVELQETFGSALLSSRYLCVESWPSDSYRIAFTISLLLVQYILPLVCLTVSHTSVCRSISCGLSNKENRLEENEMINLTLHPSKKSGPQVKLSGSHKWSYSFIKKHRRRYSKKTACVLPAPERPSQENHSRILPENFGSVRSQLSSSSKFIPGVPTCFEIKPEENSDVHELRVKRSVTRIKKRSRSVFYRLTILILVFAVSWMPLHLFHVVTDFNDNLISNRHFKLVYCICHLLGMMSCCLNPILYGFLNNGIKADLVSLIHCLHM
# T3: NPY2R (Homo sapiens, UniProt P49146)
# T3 sequence (P49146 1-381): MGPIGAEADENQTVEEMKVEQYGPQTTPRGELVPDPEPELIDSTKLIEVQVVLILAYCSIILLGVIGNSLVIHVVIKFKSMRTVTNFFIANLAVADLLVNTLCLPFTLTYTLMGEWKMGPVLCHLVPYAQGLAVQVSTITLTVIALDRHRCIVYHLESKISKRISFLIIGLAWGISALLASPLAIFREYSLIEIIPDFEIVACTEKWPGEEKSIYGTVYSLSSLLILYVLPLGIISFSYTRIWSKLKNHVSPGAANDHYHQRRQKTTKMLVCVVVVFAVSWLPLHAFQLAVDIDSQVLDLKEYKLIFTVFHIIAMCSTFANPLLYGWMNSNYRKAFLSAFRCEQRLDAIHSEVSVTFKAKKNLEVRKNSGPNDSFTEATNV
# B1: VH32/VL22: humanized anti-human tau(pS422) antibody; VH SEQ ID NO: 19, VL SEQ ID NO: 17 (antibody, V domains shown)
# VH: EVQVLESGGGLVQPGGSLRLSCAVSGFSLSSNAINWVRQAPGKGLEWVGYIAVSGNTYYASWAKGRFTISRDNSKNTVYLQMNSLRAEDTAVYYCGKSNIWGQGTLVTVSS
# VL: AQVMTQSPSSLSASVGDRVTITCRSSQSVRTNRLAWFQQKPGQPPKRLIYSASTLDYGVPSRFSGSGSGTEFTLTISSLQPEDFATYYCLGYFDSSADIVAFGGGTKVEIK
# modifications: humanized sequence
# Legend:
# NPY4R = NPY4R (Homo sapiens, UniProt P50391); test: effect on the Y2Receptor family
# Sequence of NPY4R (P50391 whole entry, species assumed): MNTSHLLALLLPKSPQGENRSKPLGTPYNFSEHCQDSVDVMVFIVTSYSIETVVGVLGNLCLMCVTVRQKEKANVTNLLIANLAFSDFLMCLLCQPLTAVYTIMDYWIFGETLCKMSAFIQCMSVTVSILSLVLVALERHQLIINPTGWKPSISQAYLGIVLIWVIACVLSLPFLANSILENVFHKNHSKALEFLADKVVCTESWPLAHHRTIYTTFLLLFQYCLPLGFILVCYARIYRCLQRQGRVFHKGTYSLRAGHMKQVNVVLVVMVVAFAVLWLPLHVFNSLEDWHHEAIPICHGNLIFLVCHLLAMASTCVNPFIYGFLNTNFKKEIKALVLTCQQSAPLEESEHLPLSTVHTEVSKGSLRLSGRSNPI
# NPY1R = target: T1, NPY1R; test: effect on the Y2Receptor family
# NPY5R = target: T2, NPY5R; test: effect on the Y2Receptor family
# NPY2R = target: T3, NPY2R; test: effect on the Y2Receptor family
# [1] = target: anti-HeliCar motif amino acid sequence antibody; test: binding of PYY peptides to anti-HeliCar motif antibody
# human tau(pS422) [2] = target: T4, human tau(pS422) (Homo sapiens, UniProt P10636, S739X); test: IHC grading in summary of biological properties; details: key not given
# Text: The following table summarizes the biological properties of selected humanized VH/VL combinations.
# [3] = target: human tau phosphorylated at S422 (Homo sapiens, UniProt P10636, S739X); test: Western Blot selectivity of humanized VH/VL combinations; type: binding; details: summary grading 1 to 4, key not given
# Text: FIG. 5 is a Western Blot showing the selectivity of selected humanized VH/VL combinations; (1)=VH00/VL00, (2)=VH32/VL21, (3)=VH20/VL22, (4)=VH32/VL22, (5)=VH33/VL22.
# The sensitivity of selected humanized VH/VL combinations to the human tau mutant S422A can be seen from the Western Blots shown in FIG. 5. All humanized variants selectively bind to human tau phosphorylated at S422.
# [4] = target: full length tau(pS422) SEQ ID NO: 02 (Homo sapiens, UniProt P10636, S739X); test: ELISA binding specificity of VH/VL combinations
# Method: (§1) In the following Table the binding specificity for different VH/VL combinations are shown (EC50 values in [ng/ml]).
# (§2) Non-biotinylated peptide/protein/aggregate was added to non-coated Maxisorb plates, biotinylated peptide/protein/aggregate in PBS was added to streptavidin-coated Maxisorb plates, and plates were incubated over-night. The supernatant was discarded and the wells washed three times with 90 μl wash buffer (lx PBS/0.1% Tween 20). Remaining reactive spots were blocked with blocking buffer (lx PBS/2% BSA (Bovine Serum Albumin Fraction V, fatty acid free, Roche, Cat. No.: 10735078001)/0.05% Tween 20) by incubating for one hour. The supernatant was discarded and the wells washed three times with 90 μl wash buffer. Samples and control antibody were prepared in 12 dilutions (1:2) in ELISA buffer (lx PBS/0.5% BSA (Bovine Serum Albumin Fraction V, fatty acid free, Roche, Cat. No.: 10735078001)/0.05% Tween 20) with a start concentration of 500 ng/ml. The incubation time was 60 minutes at room temperature on a shaker. The supernatant was discarded and the wells washed three times with 90 μl wash buffer. Solutions of secondary antibody were prepared in ELISA buffer. A total of 25 μl antibody-mix was transferred to all wells of the assay plate and the plate was thereafter incubated on shaker for 60 minutes at room temperature. The supernatant was discarded and the wells were washed three times with 90 μl wash buffer. 25 μl of ABTS solution was added to all wells. The absorbance was read at 405 nm-492 nm.
# tau(pS422) aggregates = tau(pS422) aggregates (Homo sapiens, UniProt P10636, S739X); test: ELISA binding specificity of VH/VL combinations
# Method: as §1, §2
# [5] = target: T5, S422A tau mutant S422A SEQ ID NO: 01 (Homo sapiens, UniProt P10636, S739A); test: ELISA binding specificity of VH/VL combinations
# T5 construct: (A)=full length human tau S422A mutant
# T5 sequence (P10636 1-441 isoform P10636-8 S422A): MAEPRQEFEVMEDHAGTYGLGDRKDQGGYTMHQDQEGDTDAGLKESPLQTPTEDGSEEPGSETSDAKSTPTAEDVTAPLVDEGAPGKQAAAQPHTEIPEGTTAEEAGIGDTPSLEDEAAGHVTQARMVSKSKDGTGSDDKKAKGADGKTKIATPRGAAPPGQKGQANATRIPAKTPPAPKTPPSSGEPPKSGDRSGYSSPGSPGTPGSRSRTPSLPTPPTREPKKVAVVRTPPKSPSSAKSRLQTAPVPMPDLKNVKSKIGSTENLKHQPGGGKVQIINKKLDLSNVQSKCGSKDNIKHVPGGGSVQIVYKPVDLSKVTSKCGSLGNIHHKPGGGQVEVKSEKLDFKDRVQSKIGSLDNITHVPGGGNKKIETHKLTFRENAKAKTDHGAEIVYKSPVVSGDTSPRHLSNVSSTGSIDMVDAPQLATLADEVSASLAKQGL
# Method: as §1, §2
# [6] = target: tau(pS422) fragment SEQ ID NO: 03 (Homo sapiens, UniProt P10636, S739X); test: ELISA binding specificity of VH/VL combinations
# Method: as §1, §2
# [7] = target: T6, tau peptide residues 416 to 430 of SEQ ID NO: 01 (Homo sapiens, UniProt P10636); test: ELISA binding specificity of VH/VL combinations
# T6 construct: 416 to 430
# Method: as §1, §2
# human tau(pS422) [8] = target: T4, human tau(pS422); test: BIAcore kinetic screening and kinetic rates of humanized VH/VL combinations; type: binding; details: for MR: molar ratio
# Procedure, shortened: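 Antibodies (44–70 nM) were captured on an anti-human-Fc CM5 surface in HBS-EP, pH 7.4. Phospho-tau, non-phospho-tau and T422S mutant analytes were injected at 300 nM for 3 min, with 5 min dissociation. Outputs were binding/stability late, Langmuir kd, half-life and molar ratio; kinetic rates came from 1.2–300 nM series at 25 and 37 °C, Langmuir 1:1 global fit.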
Molecule,NPY4R (NPY4R),NPY1R (NPY1R),NPY5R (NPY5R),NPY2R (NPY2R) [nM],Kd [1] [nM],IHC (human tau(pS422) [2]),WB [3],EC50 full length tau(pS422) SEQ ID NO: 02 [4] [ng/ml],EC50 tau(pS422) aggregates (tau(pS422) aggregates) [ng/ml],EC50 S422A tau mutant S422A SEQ ID NO: 01 [5] [µg/mL],EC50 tau(pS422) fragment SEQ ID NO: 03 [6] [ng/ml],EC50 tau peptide residues 416 to 430 of SEQ ID NO: 01 [7] [µg/mL],t/2diss 25° C. (human tau(pS422) [8]; 25 °C) [min],"Kd (human tau(pS422) [8]; 25 °C, read-out: KD 25° C.) [nM]",t/2diss 37° C. (human tau(pS422) [8]; 37 °C) [min],"Kd (human tau(pS422) [8]; 37 °C, read-out: KD 37° C.) [nM]",MR (human tau(pS422) [8]; 25 °C),MR (human tau(pS422) [8]; 37 °C),"BIAcore (human tau(pS422) [8]; summary grading 1 to 4, key not given)"
"Ac-Ile-Lys-Pqa-Arg-His-Tyr-Leu-Asn-Trp-Val-Thr-Arg-Gln-(NMe)-Arg-Try-NH2 * 4 HOAc (Ac-IK[Pqa]RHYLNWVTRQ[NMeR]Y-NH2; reading uncertain; also: salt: 4 HOAc, printed as Ac-Ile-Lys-Pqa-Arg-His-Tyr-Leu-Asn-Trp-Val-Thr-Arg-Gln-(NMe)-Arg-Try-NH2 * 4 HOAc) [reference compound]",inactive,inactive,inactive,1.0,–,–,–,–,–,–,–,–,–,–,–,–,–,–,–
IKPEAPGEDASPEAHLANEVARLHYLNLVTRQRY-NH2 [PYY_HeliCar],inactive,–,inactive,6.38,12,–,–,–,–,–,–,–,–,–,–,–,–,–,–
B1,–,–,–,–,–,1,1,3.5,8.3,0.0174,5.6,0.048,29,14,8,31,0.5,0.6,1
